Measurements from the supplement of paper PMC9112550, “Optimization of the antimicrobial peptide Bac7 by deep mutational scanning” (BMC Biology, 2022).

System: Escherichia coli TOP10
Assay: shrunken log2 fold change of peptide-encoding DNA abundance (4.5 h post-induction vs induction); higher = less antimicrobial activity (less host growth inhibition)
Conditions: time post-induction: 4.5 h; library: site-saturation at positions 5, 18, 19, 20
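Further: peptides expressed intracellularly from a pBAD plasmid library in pooled LB shake-flask culture, induced with 0.3% L-arabinose, DNA abundance read by NGS, three biological replicates, DESeq2 with apeglm shrinkage.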

Sequence | shrunken log2 fold change
RRIRMRPPRLPRPRPRPVCLPRP | 0.174
RRIRNRPPRLPRPRPRPSDRPRP | -0.0382
RRIRKRPPRLPRPRPRPDYRPRP | -0.157
RRIRRRPPRLPRPRPRPHHPPRP | -0.0853
RRIRFRPPRLPRPRPRPHQGPRP | -0.0419
RRIRKRPPRLPRPRPRPDLWPRP | 0.123
RRIRWRPPRLPRPRPRPKNCPRP | -0.122
RRIRQRPPRLPRPRPRPWMVPRP | -0.0803
RRIRFRPPRLPRPRPRPQDQPRP | -0.0978
RRIRKRPPRLPRPRPRPAQMPRP | 0.139
RRIRLRPPRLPRPRPRPTISPRP | -0.375
RRIRNRPPRLPRPRPRPGYWPRP | 0.168
RRIRNRPPRLPRPRPRPFAIPRP | -0.0909
RRIRVRPPRLPRPRPRPDSYPRP | 0.0384
RRIRSRPPRLPRPRPRPPVFPRP | 0.368
RRIRPRPPRLPRPRPRPAQWPRP | 0.384
RRIRCRPPRLPRPRPRPQWWPRP | 0.433
RRIRFRPPRLPRPRPRPFAHPRP | -0.0794
RRIRCRPPRLPRPRPRPNIQPRP | -0.584
RRIRHRPPRLPRPRPRPWREPRP | -0.0297
RRIRNRPPRLPRPRPRPVQFPRP | -0.124
RRIRLRPPRLPRPRPRPDAWPRP | 0.457
RRIRVRPPRLPRPRPRPRMFPRP | -0.0394
RRIRTRPPRLPRPRPRPFRCPRP | 0.0246
RRIRQRPPRLPRPRPRPVCLPRP | -0.161

Sequence | shrunken log2 fold change
RRIRGRPPRLPRPRPRPRRRPRP | 1.02
RRIRFRPPRLPRPRPRPNDGPRP | -0.222
RRIRQRPPRLPRPRPRPYNLPRP | -0.00751
RRIRGRPPRLPRPRPRPPNHPRP | 0.942
RRIRERPPRLPRPRPRPTTQPRP | 0.299
RRIRTRPPRLPRPRPRPCMNPRP | -1.43
RRIRGRPPRLPRPRPRPTTMPRP | 0.451
RRIRIRPPRLPRPRPRPPEPPRP | 0.105
RRIRKRPPRLPRPRPRPPCVPRP | 0.443
RRIRMRPPRLPRPRPRPLTEPRP | 1.31
RRIRMRPPRLPRPRPRPEHNPRP | 0.465
RRIRIRPPRLPRPRPRPHCRPRP | -0.341
RRIRGRPPRLPRPRPRPRADPRP | 1.17
RRIRMRPPRLPRPRPRPRNMPRP | 0.281
RRIRMRPPRLPRPRPRPKETPRP | 0.201
RRIRGRPPRLPRPRPRPLPKPRP | 0.943
RRIRERPPRLPRPRPRPCEVPRP | 0.028
RRIRCRPPRLPRPRPRPMLGPRP | -0.0961
RRIRNRPPRLPRPRPRPMGFPRP | -0.0516
RRIRMRPPRLPRPRPRPEERPRP | 2.6
RRIRFRPPRLPRPRPRPWKFPRP | 0.0664
RRIRSRPPRLPRPRPRPQIHPRP | -0.341
RRIRIRPPRLPRPRPRPSGMPRP | -0.433
RRIRCRPPRLPRPRPRPHIPPRP | -0.245
RRIRDRPPRLPRPRPRPIWQPRP | 0.211

Sequence | shrunken log2 fold change
RRIRQRPPRLPRPRPRPWCLPRP | -0.275
RRIRPRPPRLPRPRPRPIAVPRP | -0.0448
RRIRYRPPRLPRPRPRPSNRPRP | -0.134
RRIRGRPPRLPRPRPRPHPVPRP | 0.412
RRIRHRPPRLPRPRPRPRCNPRP | -0.331
RRIRERPPRLPRPRPRPSPNPRP | -0.328
RRIRHRPPRLPRPRPRPWYVPRP | 0.00296
RRIRLRPPRLPRPRPRPYRRPRP | 0.0203
RRIRNRPPRLPRPRPRPKVYPRP | -0.406
RRIRCRPPRLPRPRPRPCGQPRP | 0.143
RRIRERPPRLPRPRPRPPEGPRP | 0.233
RRIRHRPPRLPRPRPRPEEWPRP | 0.0893
RRIRKRPPRLPRPRPRPVIAPRP | 0.437
RRIRMRPPRLPRPRPRPHLFPRP | -0.0118
RRIRKRPPRLPRPRPRPMQSPRP | 0.995
RRIRHRPPRLPRPRPRPPARPRP | 1.66
RRIRMRPPRLPRPRPRPENTPRP | 0.427
RRIRWRPPRLPRPRPRPHWLPRP | 0.243
RRIRLRPPRLPRPRPRPPPPPRP | 1.55
RRIRNRPPRLPRPRPRPDNDPRP | -0.579
RRIRNRPPRLPRPRPRPCVIPRP | -0.318
RRIRHRPPRLPRPRPRPETLPRP | -0.18
RRIRLRPPRLPRPRPRPFDRPRP | -0.38
RRIRFRPPRLPRPRPRPETCPRP | -0.0911
RRIRLRPPRLPRPRPRPQRSPRP | 0.16

Sequence | shrunken log2 fold change
RRIRCRPPRLPRPRPRPRDIPRP | -0.132
RRIRNRPPRLPRPRPRPIHHPRP | -0.383
RRIRTRPPRLPRPRPRPRHTPRP | -0.16
RRIRNRPPRLPRPRPRPAEEPRP | 0.119
RRIRYRPPRLPRPRPRPHWIPRP | -0.398
RRIRRRPPRLPRPRPRPTTSPRP | 0.591
RRIRRRPPRLPRPRPRPQAIPRP | -0.0149
RRIRDRPPRLPRPRPRPLRSPRP | 0.294
RRIRSRPPRLPRPRPRPQPRPRP | 0.285
RRIRDRPPRLPRPRPRPVLWPRP | 0.37
RRIRNRPPRLPRPRPRPSWAPRP | -0.249
RRIRDRPPRLPRPRPRPWHAPRP | -0.134
RRIRIRPPRLPRPRPRPKHHPRP | -0.366
RRIRGRPPRLPRPRPRPWIAPRP | -0.0596
RRIRMRPPRLPRPRPRPVKNPRP | 0.00715
RRIRCRPPRLPRPRPRPMYFPRP | -0.796
RRIRNRPPRLPRPRPRPLVDPRP | 0.0463
RRIRTRPPRLPRPRPRPKQYPRP | -0.379
RRIRWRPPRLPRPRPRPTMSPRP | -0.065
RRIRSRPPRLPRPRPRPMILPRP | 0.0266
RRIRRRPPRLPRPRPRPPQGPRP | 0.856
RRIRFRPPRLPRPRPRPKPEPRP | 0.37
RRIRKRPPRLPRPRPRPKMHPRP | 0.483
RRIRARPPRLPRPRPRPSTKPRP | 0.076
RRIRQRPPRLPRPRPRPFARPRP | -0.0149

Sequence | shrunken log2 fold change
RRIRSRPPRLPRPRPRPIPPPRP | -0.0431
RRIRRRPPRLPRPRPRPFGKPRP | 0.0788
RRIRPRPPRLPRPRPRPWLLPRP | -0.111
RRIRQRPPRLPRPRPRPLRHPRP | 0.323
RRIRHRPPRLPRPRPRPSQVPRP | 0.176
RRIRERPPRLPRPRPRPRSRPRP | -0.195
RRIRTRPPRLPRPRPRPQEWPRP | -0.0128
RRIRLRPPRLPRPRPRPEDKPRP | -0.0384
RRIRERPPRLPRPRPRPIIGPRP | -0.249
RRIRIRPPRLPRPRPRPLIPPRP | -0.692
RRIRGRPPRLPRPRPRPPNDPRP | 0.76
RRIRVRPPRLPRPRPRPGEQPRP | -0.0154
RRIRYRPPRLPRPRPRPAKPPRP | -0.0319
RRIRWRPPRLPRPRPRPCECPRP | -0.151
RRIRVRPPRLPRPRPRPQVIPRP | -0.00246
RRIRMRPPRLPRPRPRPPRGPRP | 1.17
RRIRNRPPRLPRPRPRPTQWPRP | 0.425
RRIRQRPPRLPRPRPRPETQPRP | 0.0133
RRIRGRPPRLPRPRPRPMPTPRP | 0.612
RRIRPRPPRLPRPRPRPNPHPRP | 0.0866
RRIRKRPPRLPRPRPRPHCVPRP | -0.0287
RRIRQRPPRLPRPRPRPKHFPRP | -0.0231
RRIRWRPPRLPRPRPRPPQTPRP | 0.169
RRIRVRPPRLPRPRPRPHEIPRP | 0.026
RRIRSRPPRLPRPRPRPGSCPRP | 0.0634

Sequence | shrunken log2 fold change
RRIRQRPPRLPRPRPRPSKCPRP | -0.719
RRIRLRPPRLPRPRPRPNNEPRP | -0.276
RRIRERPPRLPRPRPRPMPEPRP | -0.114
RRIRNRPPRLPRPRPRPIVLPRP | -0.211
RRIRSRPPRLPRPRPRPQCKPRP | 0.0936
RRIRVRPPRLPRPRPRPFDIPRP | 0.145
RRIRCRPPRLPRPRPRPVTRPRP | 0.197
RRIRARPPRLPRPRPRPIQAPRP | -0.0205
RRIRTRPPRLPRPRPRPHGHPRP | -0.136
RRIRWRPPRLPRPRPRPKPLPRP | 0.375
RRIRDRPPRLPRPRPRPPKIPRP | -0.0144
RRIRSRPPRLPRPRPRPSAFPRP | -0.0159
RRIRNRPPRLPRPRPRPWAGPRP | 0.163
RRIRERPPRLPRPRPRPHWMPRP | -0.157
RRIRNRPPRLPRPRPRPGKLPRP | -0.0284
RRIRVRPPRLPRPRPRPGRHPRP | 0.0728
RRIRFRPPRLPRPRPRPPTQPRP | 0.327
RRIRYRPPRLPRPRPRPHINPRP | -0.806
RRIRDRPPRLPRPRPRPWSLPRP | 0.0709
RRIRFRPPRLPRPRPRPKRIPRP | -0.442
RRIRNRPPRLPRPRPRPNAFPRP | -0.126
RRIRVRPPRLPRPRPRPQQNPRP | -0.112
RRIRQRPPRLPRPRPRPWIYPRP | 0.0039
RRIRNRPPRLPRPRPRPNKKPRP | -0.198
RRIRSRPPRLPRPRPRPCACPRP | -0.0721
